Usually Tm stands for the temperature at which the thermal transition is half complete.

Sequences and labels used below:
B1: Arabinogalactan endo-beta-1,4-galactanase, P48842 (parent)
chain: MFASLLLAALPLLTHAALTYRGADISSLLLLEDEGYSYKNLNGQTQALETILADAGINSIRQRVWVNPSDGSYDLDYNLELAKRVKAAGMSLYLDLHLSDTWADPSDQTTPSGWSTTDLGTLKWQLYNYTLEVCNTFAENDIDIEIISIGNEIRAGLLWPLGETSSYSNIGALLHSGAWGVKDSNLATTPKIMIHLDDGWSWDQQNYFYETVLATGELLSTDFDYFGVSYYPFYSASATLASLKTSLANLQSTYDKPVVVVETNWPVSCPNPAYAFPSDLSSIPFSVAGQQEFLEKLAAVVEATTDGLGVYYWEPAWIGNAGLGSSCADNLMVDYTTDEVYESIETLGEL

The data set covers variants of B1. As to conditions: Aspergillus aculeatus; pH 4.5; Thermal; DSC; sodium acetate buffer 50 mM; transition: 2; reversible: no; structure 1FHL; whole UniProt chain shown.

For the variant D74N, the midpoint of thermal melting (Tm) stood at 61.5 °C and the “change of melting temperature, mutant - wild type (higher = more stable)” value (from here on “change of melting temperature, mutant”) turned out to be 0.65 °C.
On to G322A, for which the midpoint of thermal melting (Tm) amounted to 62 °C and the “change of melting temperature, mutant” value was 1.1 °C.
For the variant S201D Q204T, the Tm worked out at 61 °C and the “change of melting temperature, mutant” value was determined as 0.11 °C.
As to D198N, the melting temperature (Tm) was determined as 61.4 °C and the “change of melting temperature, mutant” value amounted to 0.53 °C.
Taken in the same sequence, the figures for Y311F were 61.2 °C and 0.34 °C.
Taken in the same sequence, the figures for G120D A172R were 60.7 °C and -0.18 °C.

Values taken from FireProtDB (doi:10.1016/j.csbj.2015.03.010).
